Data as given in patent US20230051715A1 (MABWELL THERAPEUTICS, published 2023).

T1: human C1s mutant M8 (E351A) (human, UniProt P09871 16-688)
T1 construct: The entry is the mutant itself
T1 sequence: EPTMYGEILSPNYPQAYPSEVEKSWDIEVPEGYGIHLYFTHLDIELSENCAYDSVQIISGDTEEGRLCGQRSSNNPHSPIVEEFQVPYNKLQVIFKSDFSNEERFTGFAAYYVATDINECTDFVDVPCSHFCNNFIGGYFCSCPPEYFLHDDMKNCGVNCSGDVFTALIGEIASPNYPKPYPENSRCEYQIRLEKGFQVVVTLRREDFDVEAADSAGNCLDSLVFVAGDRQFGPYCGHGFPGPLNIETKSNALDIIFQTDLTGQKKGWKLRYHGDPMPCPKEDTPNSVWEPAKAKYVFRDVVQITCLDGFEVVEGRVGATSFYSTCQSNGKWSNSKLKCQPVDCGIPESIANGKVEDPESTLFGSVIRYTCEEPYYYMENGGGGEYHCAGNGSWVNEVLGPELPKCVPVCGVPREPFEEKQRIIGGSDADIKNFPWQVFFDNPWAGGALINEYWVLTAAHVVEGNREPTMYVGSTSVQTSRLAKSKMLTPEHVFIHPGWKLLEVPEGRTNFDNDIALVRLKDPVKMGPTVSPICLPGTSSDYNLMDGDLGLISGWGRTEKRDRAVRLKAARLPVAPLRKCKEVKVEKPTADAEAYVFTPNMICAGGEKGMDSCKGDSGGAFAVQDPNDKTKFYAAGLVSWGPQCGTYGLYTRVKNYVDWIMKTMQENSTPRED

T2: human C1s mutant M19 (Q303K) (human, UniProt P09871 16-688)
T2 construct: The entry is the mutant itself
T2 sequence: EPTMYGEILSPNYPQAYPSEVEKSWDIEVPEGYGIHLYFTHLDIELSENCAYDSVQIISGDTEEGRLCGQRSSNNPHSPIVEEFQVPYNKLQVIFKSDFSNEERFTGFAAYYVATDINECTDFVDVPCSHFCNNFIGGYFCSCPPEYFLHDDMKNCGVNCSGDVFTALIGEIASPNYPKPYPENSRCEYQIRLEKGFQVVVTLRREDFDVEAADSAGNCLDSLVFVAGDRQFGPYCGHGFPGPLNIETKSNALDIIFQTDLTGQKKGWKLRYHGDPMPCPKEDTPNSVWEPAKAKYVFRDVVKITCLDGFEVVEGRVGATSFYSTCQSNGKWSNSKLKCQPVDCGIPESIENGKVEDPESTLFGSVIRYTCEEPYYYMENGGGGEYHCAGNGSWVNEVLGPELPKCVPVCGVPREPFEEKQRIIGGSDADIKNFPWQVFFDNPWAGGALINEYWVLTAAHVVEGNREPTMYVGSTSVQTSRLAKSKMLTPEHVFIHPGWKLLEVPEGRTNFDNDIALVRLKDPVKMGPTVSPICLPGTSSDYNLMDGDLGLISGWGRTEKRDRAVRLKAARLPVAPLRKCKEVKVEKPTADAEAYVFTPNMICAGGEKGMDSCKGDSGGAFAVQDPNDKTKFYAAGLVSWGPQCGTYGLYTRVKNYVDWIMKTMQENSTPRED

T3: human C1s mutant M17 (N380H) (human, UniProt P09871 16-688)
T3 construct: The entry is the mutant itself
T3 sequence: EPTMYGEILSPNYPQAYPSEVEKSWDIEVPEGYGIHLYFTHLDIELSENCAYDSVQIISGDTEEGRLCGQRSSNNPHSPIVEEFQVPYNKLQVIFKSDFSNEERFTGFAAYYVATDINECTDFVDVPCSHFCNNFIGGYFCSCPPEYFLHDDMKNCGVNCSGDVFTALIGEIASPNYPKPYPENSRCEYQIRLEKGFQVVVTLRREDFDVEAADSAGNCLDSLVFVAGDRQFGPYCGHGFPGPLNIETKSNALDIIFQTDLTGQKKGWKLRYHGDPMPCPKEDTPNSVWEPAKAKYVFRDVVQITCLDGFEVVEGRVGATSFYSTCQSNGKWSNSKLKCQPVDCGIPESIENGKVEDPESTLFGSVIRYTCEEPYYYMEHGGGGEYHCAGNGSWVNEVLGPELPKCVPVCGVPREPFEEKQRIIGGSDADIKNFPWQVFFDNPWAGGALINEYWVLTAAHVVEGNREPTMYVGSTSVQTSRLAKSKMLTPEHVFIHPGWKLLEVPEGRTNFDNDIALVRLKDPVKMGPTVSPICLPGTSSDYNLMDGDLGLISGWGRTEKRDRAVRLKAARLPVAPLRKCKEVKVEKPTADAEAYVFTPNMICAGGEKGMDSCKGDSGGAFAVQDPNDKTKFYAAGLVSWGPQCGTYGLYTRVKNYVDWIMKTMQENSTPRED


Tests used:
[1] = target: T1, human C1s mutant M8 (E351A); assay: ELISA, plate coated with human C1s mutant M8: E351A, OD450nm
Experimental: (§1) ELISA was carried out by first coating 96-well plates with 200 ng/well of full-length or truncated C1s proteins overnight. The next morning, plates were blocked with SuperBlock T20 blocking buffer (Thermo Scientific 37536) for 1 h with gentle shaking. Then, various concentrations of anti-C1s antibodies diluted in SuperBlock T20 blocking buffer were added to the plates and incubated for 1 h with gentle shaking. Mouse IgG (Sigma-Aldrich 15381) and human IgG1 (BioXCell BP0297) were used as negative controls. The plates were washed before incubating with HRP conjugated secondary antibodies diluted in SuperBlock T20 blocking buffer (goat anti-mouse IgG (H+L) cross-adsorbed secondary antibody HRP (Invitrogen G-21040) or goat anti-human IgG antibody, HRP conjugate (Millipore AP309P)) for 1 h with gentle shaking. At last, the plates were washed and color developed with ELISA liquid HRP substrate (Sigma-Aldrich), followed by stopping the reaction with addition of 1M H₂SO₄ in the same volume as the ELISA liquid substrate. Bound antibody was measured by absorbance at OD₄₅₀ₙₘ.
(§2) Binding of anti-C1s antibodies to mutants M1-M20 of human C1s was measured by ELISA as described in Example 4, and results are shown in FIGS. 6B-6U. All anti-C1s humanized variants including hz2-7(H1L2), hz2-8(H1L2 G80A) and hz2-8(H1L2 G80A/T82A) maintained strong binding properties to the majority (16 out of 20) of C1s mutants including M1 (FIG. 6B), M2 (FIG. 6C), M3 (FIG. 6D). M4 (FIG. 6E), M7 (FIG. 6H), M8 (FIG. 6I), M10 (FIG. 6K), M11 (FIG. 6L), M12 (FIG. 6M), M13 (FIG. 6N), M15 (FIG. 6P), M16 (FIG. 6Q), M17 (FIG. 6R), M18 (FIG. 6S), M19 (FIG. 6T) and M20 (FIG. 6U).

[2] = target: T2, human C1s mutant M19 (Q303K); assay: ELISA, plate coated with human C1s mutant M19: Q303K, OD450nm
Experimental: as §1, §2

[3] = target: T3, human C1s mutant M17 (N380H); assay: ELISA, plate coated with human C1s mutant M17: N380H, OD450nm
Experimental: as §1, §2

EC50 [1]	EC50 [2]	EC50 [3]	Binder
16 ng/mL	2 ng/mL	4 ng/mL	Anti-C1s antibody hz2-7(H1L2) (antibody, V domains shown, Humanized, human IgG1 / kappa; also called hz2-7(1L2)) VH: EVQLLESGGGLVQPGGSLRLSCAASGFTFSNYFMNWVRQAPGKGLEWVSEIRLKFTNYATHYADSVKGRFTISRDDSKSTLYLQMNSLRAEDTAVYYCTRDYGSRNGYFDYWGQGTLVTVSS VL: DIVMTQTPLSLPVTPGEPASISCRSSKSLLHSNGNTFLYWFLQKPGQSPQLLIYRMSNLASGVPDRFSGSGSGTDFTLKISRVEAEDVGVYYCMQHLEYPYTFGGGTKLEIKR
10 ng/mL	1 ng/mL	5 ng/mL	Anti-C1s antibody hz2-8 (H1L2 G80A) (antibody, V domains shown, Humanized variant with G80A in HC CDR2 (already in the entry), human IgG1 / kappa) VH: QVQLVQSGAEVKKPGASVKVSCKASGFNIKEYYMHWVRQAPEQGLEWMGWIDPENADTIYAQKFQGRVTITADTSTNTAYMELSSLRSEDTAVYYCARSRLFFAYWGQGTLVTVSS VL: DIQMTQSPKSLSASVGDRVTITCRASQDVRTALDWYQQKPGQSPKLLIYSASYRYSGVPSRFSGSGSGTDFTLTISSLQPEDFATYYCQQQYTTPYTFGQGTKLEIKR
11 ng/mL	1 ng/mL	8 ng/mL	Anti-C1s antibody hz2-8 (H1L2 G80A/T82A) (antibody, V domains shown, Humanized variant with G80A and T82A in HC CDR2 (already in the entry), human IgG1 / kappa) VH: QVQLVQSGAEVKKPGASVKVSCKASGFNIKEYYMHWVRQAPEQGLEWMGWIDPENADAIYAQKFQGRVTITADTSTNTAYMELSSLRSEDTAVYYCARSRLFFAYWGQGTLVTVSS VL: DIQMTQSPKSLSASVGDRVTITCRASQDVRTALDWYQQKPGQSPKLLIYSASYRYSGVPSRFSGSGSGTDFTLTISSLQPEDFATYYCQQQYTTPYTFGQGTKLEIKR
